How the values were obtained:
[1] = test system: DmEcR-CDEF; test: GAL4/DmEcR-CDEF wild-type and mutants, luciferase reporter transactivation in NIH3T3 cells; format: cell-based, Drosophila melanogaster; conditions: GAL4/DmEcR-CDEF + VP16/LmUSP-EF + pFRLUC, 48 hours
Protocol: (§1) DNAs corresponding to the various switch constructs outlined in Example 1, specifically switches 1.1-1.2, were transfected into mouse NIH3T3 cells (ATCC) as follows. […] Two μl of Superfect™ was mixed with 100 μl of growth medium and 50 ng of either GAL4/wild-type EcR or Gal4/mutant EcR cassette, 50 ng of VP16/LmUSP-EF and 200 ng of pFRLuc were added to the transfection mix. […] The cells were harvested and reporter activity was assayed as described above.
Applicants mutated amino acid residues predicted to be critical for ecdysteroid binding and created GAL4/mutantDmEcR-CDEF cDNA gene expression cassettes as described in Example 1 above using PCR-mediated site-directed mutagenesis. The mutated and the WT cDNAs corresponding to the various switch constructs outlined above in Examples 1.8 and 1.9 were made and tested in reporter assays in NIH3T3 cells as described in Example 2. Each GAL4/DmEcR-CDEF construct, VP16/LmUSP-EF, and pFRLUC were transfected into NIH3T3 cells and the transfected cells were treated with 2.5 μM GS-™E or Ponasterone A. The cells were harvested and the reporter activity was measured at 48 hours after addition of ligand. The fold induction was calculated by dividing reporter activity in the presence of ligand with the reporter activity in the absence of ligand. From the fold induction, percent wild-type activity was calculated for each mutant.

[2] = test system: DmEcR-CDEF; test: VP16/DmEcR-CDEF wild-type and mutants, 6xEcRE β-gal reporter transactivation in insect L57 cells; format: cell-based, Drosophila melanogaster; conditions: for Fold increase over WT, 1 μM 20-hydroxyecdysone / Fold increase over WT, 1 μM GS™-E / reduction in steroid activity: VP16/DmEcR-CDEF; for reduction in steroid activity / steroid activity (summary of Table 14): 20E; for reduction in steroid activity: versus wild-type; for non-steroid activity (summary of Table 14): GS™-E; for non-steroid activity (summary of Table 14) / steroid activity (summary of Table 14): DmEcR mutants
Protocol: The wild-type and mutant DmEcR-CDEF receptors were also used to make VP16/wild-type or mutantDmEcR-CDEF constructs as described in Example 1.10 and 1.11. VP16DmEcR-CDEF and a 6×EcREβ-gal reporter were transfected into L57 cells and the transfected cells were treated with 1 uM 20-hydroxyecdysone (20E) or GS™-E. The cells were harvested, lysed and the reporter activity was measured as described above in Example 6. The fold induction was calculated by dividing reporter activity in the presence of ligand with the reporter activity in the absence of ligand. From the fold induction, percent wild-type activity was calculated for each mutant.

[3] = test system: CfEcR-DEF; test: GAL4/mutant CfEcR-DEF + VP16/LmUSP-EF GAL4-driven luciferase reporter transactivation in NIH3T3 cells; format: cell-based, Choristoneura fumiferana; conditions: NIH3T3 cells, relative to Gal4/wild-type CfEcR-DEF switch activity; for Fold increase over WT, 2.5 μM GS™-E: 2.5 μM GS™-E non-steroidal ligand; for Fold increase over WT, 2.5 μM PonA: 2.5 μM PonA steroidal ligand
Protocol: DNAs corresponding to the various switch constructs outlined in Example 1, specifically switches 1.1-1.13, were transfected into mouse NIH3T3 cells (ATCC) or L57 cells (Dr. Peter Cherbas; Indiana University) as follows. Standard methods for culture and maintenance of the cells were followed. […] Superfect™ (Qiagen Inc.) was used for 3T3 cells and Lipofectamine™ (LifeTechnologies) was used for L57 cells as the transfection reagents. For 12-well plates, 4 μl of Superfect™ or Lipofectamine™ was mixed with 100 μl of growth medium. One μg of reporter construct and 0.25 μg of each receptor construct of the receptor pair to be analyzed were added to the transfection mix. […] The cells were harvested and reporter activity was assayed.
Cells were harvested 40 hours after adding ligands. […] Twenty μl of lysate were assayed.
Briefly, Applicants mutated amino acid residues predicted to be critical for ecdysteroid binding into alanine and created GAL4/mutantCfEcR-DEF cDNA gene expression cassettes as described in Example 1 above using the Quikchange PCR-mediated site-directed mutagenesis kit (Stratagene, La Jolla, Calif.). The mutated and the WT cDNAs were tested in GAL4-driven luciferase reporter assays.
as §1

Row | Molecule | Fold increase over WT, 2.5 μM GS™-E [1] | Fold increase over WT, 2.5 μM Ponasterone A [1] | Fold increase over WT, 1 μM 20-hydroxyecdysone [2] | Fold increase over WT, 1 μM GS™-E [2] | reduction in steroid activity [2] | non-steroid activity (summary of Table 14) [2] | steroid activity (summary of Table 14) [2] | Fold increase over WT, 2.5 μM GS™-E [3] | Fold increase over WT, 2.5 μM PonA [3]
1 | G121R: DmEcR-CDEF LBD substitution mutant, Glycine (G) to Arginine (R) (protein, Drosophila melanogaster) LTYNQLAVIYKLIWYQDGYEQPSEEDLRRIMSQPDENESQTDVSFRHITEITILTVQLIVEFAKGLPAFTKIPQEDQITLLKACSSEVMMLRMARRYDHSSDSIFFANNRSYTRDSYKMARMADNIEDLLHFCRQMFSMKVDNVEYALLTAIVIFSDRPGLEKAQLVEAIQSYYIDTLRIYILNRHCGDSMSLVFYAKLLSILTELRTLGNQNAEMCFSLKLKNRKLPKFLEEIWDV | 0.0075 fold | 0.05 fold | 0.5 fold | 0.92 fold | 50% | minimal effect | – | – | –
2 | C217S: DmEcR-CDEF LBD substitution mutant, Cysteine (C) to Serine (S) (protein, Drosophila melanogaster) LTYNQLAVIYKLIWYQDGYEQPSEEDLRRIMSQPDENESQTDVSFRHITEITILTVQLIVEFAKGLPAFTKIPQEDQITLLKACSSEVMMLRMARRYDHSSDSIFFANNRSYTRDSYKMAGMADNIEDLLHFCRQMFSMKVDNVEYALLTAIVIFSDRPGLEKAQLVEAIQSYYIDTLRIYILNRHCGDSMSLVFYAKLLSILTELRTLGNQNAEMSFSLKLKNRKLPKFLEEIWDV | 0.014 fold | 0.0064 fold | 0.39 fold | 0.92 fold | 61% | minimal effect | – | – | –
3 | N213A: DmEcR-CDEF LBD substitution mutant, Asparagine (N) to Alanine (A) (protein, Drosophila melanogaster) LTYNQLAVIYKLIWYQDGYEQPSEEDLRRIMSQPDENESQTDVSFRHITEITILTVQLIVEFAKGLPAFTKIPQEDQITLLKACSSEVMMLRMARRYDHSSDSIFFANNRSYTRDSYKMAGMADNIEDLLHFCRQMFSMKVDNVEYALLTAIVIFSDRPGLEKAQLVEAIQSYYIDTLRIYILNRHCGDSMSLVFYAKLLSILTELRTLGNQAAEMCFSLKLKNRKLPKFLEEIWDV | – | – | 0.01 fold | 0.08 fold | – | lost sensitivity | lost sensitivity | – | –
4 | G121L: DmEcR-CDEF LBD substitution mutant, Glycine (G) to Leucine (L) (protein, Drosophila melanogaster) LTYNQLAVIYKLIWYQDGYEQPSEEDLRRIMSQPDENESQTDVSFRHITEITILTVQLIVEFAKGLPAFTKIPQEDQITLLKACSSEVMMLRMARRYDHSSDSIFFANNRSYTRDSYKMALMADNIEDLLHFCRQMFSMKVDNVEYALLTAIVIFSDRPGLEKAQLVEAIQSYYIDTLRIYILNRHCGDSMSLVFYAKLLSILTELRTLGNQNAEMCFSLKLKNRKLPKFLEEIWDV | 0.008 fold | 0.001 fold | 0.09 fold | 0.15 fold | – | lost sensitivity | lost sensitivity | – | –
5 | C217A: DmEcR-CDEF LBD substitution mutant, Cysteine (C) to Alanine (A) (protein, Drosophila melanogaster) LTYNQLAVIYKLIWYQDGYEQPSEEDLRRIMSQPDENESQTDVSFRHITEITILTVQLIVEFAKGLPAFTKIPQEDQITLLKACSSEVMMLRMARRYDHSSDSIFFANNRSYTRDSYKMAGMADNIEDLLHFCRQMFSMKVDNVEYALLTAIVIFSDRPGLEKAQLVEAIQSYYIDTLRIYILNRHCGDSMSLVFYAKLLSILTELRTLGNQNAEMAFSLKLKNRKLPKFLEEIWDV | 0.008 fold | 0.022 fold | 0.48 fold | 0.70 fold | – | reduced | reduced | – | –
6 | A107P: DmEcR-CDEF LBD substitution mutant, Alanine (A) to Proline (P) (protein, Drosophila melanogaster) LTYNQLAVIYKLIWYQDGYEQPSEEDLRRIMSQPDENESQTDVSFRHITEITILTVQLIVEFAKGLPAFTKIPQEDQITLLKACSSEVMMLRMARRYDHSSDSIFFPNNRSYTRDSYKMAGMADNIEDLLHFCRQMFSMKVDNVEYALLTAIVIFSDRPGLEKAQLVEAIQSYYIDTLRIYILNRHCGDSMSLVFYAKLLSILTELRTLGNQNAEMCFSLKLKNRKLPKFLEEIWDV | – | – | 0.09 fold | 0.9 fold | – | very little effect | loss of most steroid activity | – | –
7 | Q21A: CfEcR-DEF LBD substitution mutant, Glutamine (Q) to Alanine (A) (protein, listed as Choristoneura fumiferana) LTANQQFLIARLIWYQDGYEAPSDEDLKRITQTWQQADDENEESDTPFRQITEMTILTVQLIVEFAKGLPGFAKISQPDQITLLKACSSEVMMLRVARRYDAASDSVLFANNQAYTRDNYRKAGMAYVIEDLLHFCRCMYSMALDNIHYALLTAVVIFSDRPGLEQPQLVEEIQRYYLNTLRIYILNQLSGSARSSVIYGKILSILSELRTLGMQNSNMCISLKLKNRKLPPFLEEIWDV | – | – | – | – | – | – | – | 0.32 fold | 0.37 fold
8 | I51A: CfEcR-DEF LBD substitution mutant, Isoleucine (I) to Alanine (A) (protein, listed as Choristoneura fumiferana) LTANQQFLIARLIWYQDGYEQPSDEDLKRITQTWQQADDENEESDTPFRQATEMTILTVQLIVEFAKGLPGFAKISQPDQITLLKACSSEVMMLRVARRYDAASDSVLFANNQAYTRDNYRKAGMAYVIEDLLHFCRCMYSMALDNIHYALLTAVVIFSDRPGLEQPQLVEEIQRYYLNTLRIYILNQLSGSARSSVIYGKILSILSELRTLGMQNSNMCISLKLKNRKLPPFLEEIWDV | – | – | – | – | – | – | – | 0.003 fold | 0.004 fold
9 | F48A: CfEcR-DEF LBD substitution mutant, Phenylalanine (F) to Alanine (A) (protein, listed as Choristoneura fumiferana) LTANQQFLIARLIWYQDGYEQPSDEDLKRITQTWQQADDENEESDTPARQITEMTILTVQLIVEFAKGLPGFAKISQPDQITLLKACSSEVMMLRVARRYDAASDSVLFANNQAYTRDNYRKAGMAYVIEDLLHFCRCMYSMALDNIHYALLTAVVIFSDRPGLEQPQLVEEIQRYYLNTLRIYILNQLSGSARSSVIYGKILSILSELRTLGMQNSNMCISLKLKNRKLPPFLEEIWDV | – | – | – | – | – | – | – | 0.007 fold | 0.007 fold

Reference: patent publication US8715959B2, “Substitution mutant receptors and their use in a nuclear receptor-based inducible gene expression system” (priority 2001, dated 2014)
